Results taken from patent US11123408B2, “Compositions and methods for treating nonsteroidal anti-inflammatory drug (NSAID) associated coagulopathy, thrombocytopenia, glanzmann's thrombasthenia, and/or thrombosis” (YALE UNIVERSITY, priority 2011, dated 2021).
“Also recorded” adds a separate entry of the source.

How the values were obtained:
Assay type in all cases: cell-based, human
[1] = test system: platelets of a patient donor with a mild platelet storage pool disorder; assay: LTA in platelet rich plasma of a patient donor with a mild platelet storage pool disorder; conditions: 50 nM NPP4; 2.5 μM ADP; without NPP4 approximately 40%
Procedure: (§1) Platelet aggregation was determined by measuring the change in light transmittance of stirred PRP over time after addition of various agonists. Prior to each experiment the aggregometer was standardized to reflect 100% and 0% light transmittance with PPP and PRP, respectively, from the donor whose platelets were used in each specific experiment. 500 μL PRP was added to cuvettes containing a magnetic stir bar and allowed to pre-warm to 37° C. in the aggregometer wells for 3 minutes prior to initiating aggregation reactions which were then conducted at 37° C. Aggregation reactions were initiated by direct addition of agonists and/or enzymes to warmed, stirred PRP, and were monitored for an increase in light transmittance for 10 minutes. The increase in light transmittance is directly proportional to the amount of aggregation and is amplified and digitized into a computer (HP Compaq, Hewlett-Packard, Palo Alto, Calif.) with the AGGRO/LINK8 for Windows software (Chrono-Log Corporation, Havertown, Pa.) to generate aggregation curves. […] The platelet aggregometry experiments for all concentrations of MRS 2395 (including the 0 μM point) were conducted with the plasma adjusted to a final concentration of 10% DMSO to solubilize the inhibitor.
(§2) NPP4 rescues platelets exposed to NSAIDs. […]

[2] = test system: platelets exposed to NSAIDs; assay: LTA in platelet-rich plasma from an individual who had consumed ibuprofen; conditions: 20 nM NPP4; 3 μM ADP; donor took 800 mg ibuprofen 12 hours before
Procedure: as §1, §2

[3] = test system: platelets in platelet rich plasma; assay: Lumi aggregometry (extracellular ATP, dense granule release) simultaneously with LTA
Procedure: Whole blood from healthy voluntary donors was collected in accordance with an IRB-approved protocol into blue top vacutainer tubes containing 3.2% sodium citrate. Blood was centrifuged at 1000 RPM for 10 minutes at room temperature to collect platelet rich plasma (PRP). PRP in the supernatant was then transferred to fresh tubes, and the remainder of the specimen was centrifuged at 4000 RPM for 10 minutes to obtain platelet poor plasma (PPP). PRP was adjusted to a final platelet count of 250×10^6 platelets/mL with autologous PPP for use in aggregation studies. Potential donors were excluded if there was a history of a bleeding disorder or current anticoagulant use and donors were instructed to avoid NSAIDs for at least 7 days prior to donation. Approval for the human subjects involved in this research was sought and granted by the Committee for the Protection of Human Subjects, Dartmouth-Hitchcock Medical Center, where these studies were conducted in accordance with the Declaration of Helsinki.
Light transmission (i.e., optical) and lumi aggregometry were performed on up to four samples from the same individual simultaneously with a Chrono-Log Model 700 Whole Blood/Optical Lumi Aggregometer (Chrono-Log Corporation, Havertown, Pa.) using procedures provided by the manufacturer that are briefly summarized here.
as §1
In a subgroup of experiments, lumi aggregometry was used to assay the levels of extracellular ATP simultaneously with LTA. Lumi aggregometry measures ATP in the extracellular space over time using a sensitive luminescent assay employing firefly luciferin-luciferase (CHRONO-LUME™ reagent, Chrono-Log Corporation, Havertown, Pa.). ATP binds to luciferin-luciferase and generates light that is then amplified by a high-gain photomultiplier tube in the lumi aggregometer and is measured simultaneously with the optical change in light transmittance caused by platelet aggregation. In experiments in which lumi aggregometry was performed, 450 μL of PRP was transferred to cuvettes containing magnetic stir bars and allowed to pre-warm to 37° C. in the aggregometer wells for 3 minutes. […] Reactions were initiated by the addition of agonists and/or enzymes to warmed PRP and CHRONOLUME′ reagent and were monitored for light generation. […]

B1: NPP4: soluble recombinant extracellular domain of human NPP4 (NCBI AAH18054.1, residues 1-407 of SEQ ID NO:1), expressed in insect cells (protein, listed as Homo sapiens)
chain: MKLLVILLFSGLITGFRSDSSSSLPPKLLLVSFDGFRADYLKNYEFPHLQNFIKEGVLVEHVKNVFITKTFPNHYSIVTGLYEESHGIVANSMYDAVTKKHFSDSNDKDPFWWNEAVPIWVTNQLQENRSSAAAMWPGTDVPIHDTISSYFMNYNSSVSFEERLNNITMWLNNSNPPVTFATLYWEEPDASGHKYGPEDKENMSRVLKKIDDLIGDLVQRLKMLGLWENLNVIITSDHGMTQCSQDRLINLDSCIDHSYYTLIDLSPVAAILPKINRTEVYNKLKNCSPHMNVYLKEDIPNRFYYQHNDRIQPIILVADEGWTIVLNESSQKLGDHGYDNSLPSMHPFLAAHGPAFHKGYKHSTINIVDIYPMMCHILGLKPHPNNGTFGHTKCLLVDQWCINLPEA
- maximum amplitude of aggregation [1]: approximately 65%
- effect on ADP-induced aggregation of NSAID-exposed platelets [2]: normalization of ADP-induced aggregation
- time to granule release ([3]; 100 nM NPP4 with 40 μM Ap3A): ~1.5 min
- platelet aggregation and dense granule (ATP) release, enzyme with Ap3A (qualitative) ([3]; 100 nM enzyme with 40 μM Ap3A): ATP release and platelet aggregation were simultaneously seen; also recorded: strong platelet aggregation and dense granule release
